Assay [1] relates to PKC. Briefly: MARCKS phosphorylation in primary skeletal muscle cells from εPKC knockout mice (Western blot). The settings on record: primary mouse muscle cells from εPKC knock-out mice; 1 μM peptide for 15 minutes. A general note: A western blot detects proteins with antibodies after separation by electrophoresis.
The target in assay [2] is T1, εPKC (Mus musculus, UniProt P16054).
T1 construct: from tissue; host or cells: mouse heart
T1 sequence (P16054 1-737): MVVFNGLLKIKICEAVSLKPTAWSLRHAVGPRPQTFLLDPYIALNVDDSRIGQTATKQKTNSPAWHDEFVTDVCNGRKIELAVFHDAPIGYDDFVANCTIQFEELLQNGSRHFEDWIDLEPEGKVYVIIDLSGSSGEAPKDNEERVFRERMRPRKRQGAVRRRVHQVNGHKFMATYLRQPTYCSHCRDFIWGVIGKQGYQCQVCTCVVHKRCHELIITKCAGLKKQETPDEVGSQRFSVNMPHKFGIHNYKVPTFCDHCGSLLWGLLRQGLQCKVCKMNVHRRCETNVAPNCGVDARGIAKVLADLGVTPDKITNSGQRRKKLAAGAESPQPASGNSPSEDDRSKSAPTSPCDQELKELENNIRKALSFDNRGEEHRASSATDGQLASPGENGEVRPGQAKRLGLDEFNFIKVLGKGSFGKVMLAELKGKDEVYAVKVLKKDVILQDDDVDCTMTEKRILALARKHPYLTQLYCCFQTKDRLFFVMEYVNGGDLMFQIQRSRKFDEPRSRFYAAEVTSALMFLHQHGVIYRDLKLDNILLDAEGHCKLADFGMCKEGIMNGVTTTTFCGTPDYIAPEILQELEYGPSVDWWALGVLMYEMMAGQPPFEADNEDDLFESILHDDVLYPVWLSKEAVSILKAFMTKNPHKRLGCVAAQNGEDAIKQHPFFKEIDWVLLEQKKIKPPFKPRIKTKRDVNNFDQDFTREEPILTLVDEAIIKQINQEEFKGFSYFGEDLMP
Put plainly: In vivo PKC translocation in hearts after intraperitoneal injection (immunoblot). Also noted: species or system mice. The settings on record: particulate fraction of mouse hearts, 15 minutes following IP injection of 20 nmol peptide; relative to control TAT peptide. On the procedure: (§1) In a further in vivo study, peptide activity and selectivity were examined using representative peptides injected into mice via intraperitoneal (IP) injection, and the amount of εPKC, δPKC, αPKC, and ζPKC translocation in hearts was determined. These four PKC isozymes represent each of the three major sub-families of PKC. In particular, εPKC and δPKC are members of the novel PKC family (calcium insensitive, diacylglycerol sensitive), αPKC is a classical PKC (calcium and diacylglycerol sensitive), and ζPKC is an atypical PKC (calcium and diacylglycerol insensitive).
(§2) Levels of εPKC, δPKC, αPKC, and ζPKC in the particulate fraction of mouse hearts were assayed by immunoblot 15 minutes following IP injection of 20 nmol each peptides (FIGS. 5A-5D). The accompanying graphs show quantitation based on two experiments, calculated as fold increase (+/−standard error) in the particulate fraction/total fraction, normalized to the actin loading control, and relative to the control TAT peptide. […] Since peptides 11 and 13 caused MARCKS phosphorylation in myocytes from the εPKC knockout mice (FIG. 3), it is concluded that they activated several PKC isozymes.
(§3) Isozyme Selectivity In Vivo—To determine that activator peptides causing MARCKS phosphorylation and decreasing ischemia-reperfusion damage in heart also induce εPKC translocation in vivo, we injected the respective peptides at 20 nmol in 200 μl saline into the peritoneum of 15-20 g mice, as previously reported (48). Fifteen minutes later, the mice were sacrificed and heart and brain were collected. Soluble and particulate fractions from mouse tissue were prepared as previously described (48). ε, ζ and δPKC translocation were determined by Western blot analysis using selective anti-PKC antibodies from Santa Cruz Biotechnology, Santa Cruz, Calif. and used at 1:500 dilution. Sarcomeric actin (1:1000, Sigma) was used as a loading control for all fractions.

Assay [3] concerns the target T2, δPKC (Mus musculus, UniProt P28867).
T2 construct: from tissue; host or cells: mouse heart
The assay is described as above. Also on record: species or system mice. Particulars: particulate fraction of mouse hearts, 15 minutes following IP injection of 20 nmol peptide; relative to control TAT peptide. On the procedure: as §1, §2, §3

The target of assay [4] is T3, αPKC (Mus musculus, UniProt P20444).
T3 construct: from tissue; host or cells: mouse heart
The description is as above. Particulars: particulate fraction of mouse hearts, 15 minutes following IP injection of 20 nmol peptide; relative to control TAT peptide. Also noted: species or system mice. As for the experimental part: as §1, §2, §3

In assay [5] the test system is intact heart, ex vivo. Put plainly: Ex vivo cardiac protection, ischemia and reperfusion in Langendorff-perfused hearts (TTC staining, CPK release). Also on record: species or system Wistar rats.

Entries after “also recorded” stand apart in the source; their conditions may differ. Ends that are not written are not given here.

T2 sequence (P28867 whole entry): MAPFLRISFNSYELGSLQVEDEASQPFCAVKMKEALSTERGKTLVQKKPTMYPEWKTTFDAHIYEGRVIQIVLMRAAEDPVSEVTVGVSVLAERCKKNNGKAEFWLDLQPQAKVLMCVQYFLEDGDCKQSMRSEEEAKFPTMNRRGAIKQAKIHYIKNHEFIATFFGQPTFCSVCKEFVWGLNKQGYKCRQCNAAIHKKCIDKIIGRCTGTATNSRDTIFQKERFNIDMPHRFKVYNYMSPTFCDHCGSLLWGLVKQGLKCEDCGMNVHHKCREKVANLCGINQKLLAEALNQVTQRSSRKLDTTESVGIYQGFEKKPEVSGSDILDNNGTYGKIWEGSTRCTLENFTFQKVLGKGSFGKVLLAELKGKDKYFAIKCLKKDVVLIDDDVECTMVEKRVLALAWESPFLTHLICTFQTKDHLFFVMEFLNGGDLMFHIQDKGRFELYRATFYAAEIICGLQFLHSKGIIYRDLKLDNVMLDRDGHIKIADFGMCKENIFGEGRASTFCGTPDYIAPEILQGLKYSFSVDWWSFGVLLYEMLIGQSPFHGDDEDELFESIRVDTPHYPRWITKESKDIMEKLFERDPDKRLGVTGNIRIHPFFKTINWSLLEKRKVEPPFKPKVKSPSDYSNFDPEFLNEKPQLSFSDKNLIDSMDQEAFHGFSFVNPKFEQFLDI

As to “CHFEDWID (not fully specified; also: TAT47-57 carrier linked via Cys disulfide) [Peptide 11]”, in assay [1], the “MARCKS phosphorylation in εKO Cells” value is on record as “increased MARCKS phosphorylation; also recorded: activator”. Moreover, the “translocation of εPKC in hearts in vivo” value in assay [2] is on record as “substantial translocation”. For the same sequence, the “translocation of δPKC in hearts in vivo” value in assay [3] is given as “substantial translocation”. Moreover, the “translocation of αPKC in hearts in vivo” value in assay [4] is on record as “substantial translocation”. The Cardioprotective ex vivo result in assay [5] was “not cardioprotective and no”.

The record behind these values is patent US7851587B2, “Peptides derived from the C2 domain of epsilon PKC” (The Board of Trustees of the Leland Stanford Junior …, priority 2006, dated 2010).
